B1: unnamed (protein)
chain: MRPPWYPLHTPSLAFPLLFLLLSLLGGGARAEGREDPQLLVRVRGGQLRGIRLKAPGGPVSAFLGIPFAEPPVGSRRFMPPEPKRPWSGVLDATTFQNVCYQYVDTLYPGFEGTEMWNPNRELSEDCLYLNVWTPYPRPASPTPVLIWIYGGGFYSGAASLDVYDGRFLAQVEGAVLVSMNYRVGTFGFLALPGSREAPGNVGLLDQRLALQWVQENIAAFGGDPMSVTLFGESAGAASVGMHILSLPSRSLFHRAVLQSGTPNGPWATVSAGEARRRATLLARLVGCPPGGAGGNDTELIACLRTRPAQDLVDHEWHVLPQESIFRFSFVPVVDGDFLSDTPEALINTGDFQDLQVLVGVVKDEGSAFLVYGVPGFSKDNESLISRAQFLAGVRIGVPQASDLAAEAVVLHYTDWLHPEDPTHLRDAMSAVVGDHNVVCPVAQLAGRLAAQGARVYAYIFEHRASTLTWPLWMGVPHGYEIEFIFGLPLDPSLNYTTEERIFAQRLMKYWTNFARTGDPNDPRDSKSPQWPPYTTAAQQYVSLNLKPLEVRRGLRAQTCAFWNRFLPKLLSATDTLDEAERQWKAEFHRWSSYMVHWKNQFDHYSKQERCSDL
B2: unnamed (protein)
chain: B1 chain with F326Y, A368Y
B3: unnamed (protein)
chain: B1 chain with F326L, F328I, A368Y
B4: unnamed (protein)
chain: B1 chain with Y103N, Y155Q, W317A, A368Y
B5: unnamed (protein)
chain: B1 chain with A368Y

Positions count from the first letter of the chain named.

Substrate in this data set: Acetylcholine
As to conditions: pH 7; 22 °C.
As a reminder, the Km is the substrate concentration at which the rate is half of its maximum. As usually defined, the kcat is the number of substrate molecules converted per active site and unit of time at saturation. As to B1, the Michaelis constant (Km) is 110 µM and the kcat came out at 867 s⁻¹.

For the protein B2, the Michaelis constant (Km) was found to be 17 µM and the kcat was 102 s⁻¹.

As to B3, the Michaelis-Menten constant (Km) came out at 200 µM and the kcat worked out at 200 s⁻¹.

For the protein B4, the Michaelis constant (Km) amounted to 230 µM and the kcat turned out to be 2500 s⁻¹.

In general, kcat/Km refers to the second-order rate constant that governs catalysis at low substrate concentration. B5: the Km worked out at 451000 µM, the kcat worked out at 667 s⁻¹ and the kcat/Km came to 1480 M⁻¹ s⁻¹.

These data come from the PETadex activity labels (doi:10.1021/bi00096a018).
